Measurements from paper PMC6113619.

Biological target: T1, QscR (Pseudomonas aeruginosa PAO1?) (UniProt G3XD77)
T1 sequence: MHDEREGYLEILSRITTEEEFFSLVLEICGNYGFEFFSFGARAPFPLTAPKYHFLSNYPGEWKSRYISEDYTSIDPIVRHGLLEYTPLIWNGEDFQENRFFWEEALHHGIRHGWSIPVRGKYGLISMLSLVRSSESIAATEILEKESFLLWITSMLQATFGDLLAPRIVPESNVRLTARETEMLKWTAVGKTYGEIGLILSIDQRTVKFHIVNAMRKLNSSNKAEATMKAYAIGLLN
Test: EMSA
Settings: EMSA: 40 ng probe, 0-100 ng QscR in 10 ul; 20 mM Tris pH 7.5, 50 mM KCl, 10% glycerol, 1 mM DTT, 20 uM 3OC12-HSL; 20 min room temperature; 5% native gel at …

For “CTCTCGTGTGAAGCCATTGCTCTGATCTTTTCGGACGTTTCTTCGAGCCTAGCAAGGGTCCGGGTTCACCGAAATCTATCTCATTTGCTAGTTATAAAATTATGAAATTTGCATAAATTCTTCAGCTTCCTATTTGGAGGAAGTGAAGATGATCGTACAAATTGGTCGGCGCGAAGAGTTCGATAAAAAACTGCTGGGCGAGATGCACAAGTTGCGTGCTCAAGTGTTC (double strand) [lasI promoter PCR fragment]”, the binding was “no binding”.
“GCTTCACCGAGCAGAACTCCGGGCTGATCTACCGCGGGCAATCAGGCGGAATGAACGAAGCGTTCTCCGACATGGCCGGCGAGGCTGCCGAGTTCTATATGCGCGGCAAGAACGACTTCCTGATCGGCTACGACATCAAGAAGGGCAGCGGTGCGCTGCGCTACATGGACCAGCCCAGCC (double strand) [lasB promoter PCR fragment]” was tested, and the binding was “no binding”.
